Consider four molecules from US20130018172A1, “Metal Abstraction Peptide and Uses Thereof” (Echogen, Inc., priority 2011, published 2013).

Data set [1] is described as follows: ICP-MS of metal bound to purified PRL-1 variants (Ni). It counts as binding. Conditions: for Ni bound, ICP-MS: PRL-1 variants purified on Ni-IMAC, analyzed in parallel. Here is the method:
Because the histidine mutant retained tight binding, mutations at C170 and/or C171 were made.
(§1) ICP-MS was used to characterize the bound metal. Purified protein samples were digested in concentrated nitric acid in PFA microcentrifuge tubes (Savillex, #s 7240, 7241) at 68±1° C. for 16.5±0.7 hours. Based on protein quantification prior to digestion, the sample was then diluted to 1.5 μM in 20 mM ammonium bicarbonate, pH 8.2, filtered through a 0.2 μm nylon filter, and injected into a VG Elemental VGII+XS Inductively-Coupled Plasma-Mass Spectrometer fitted with a microconcentric nebulizer. A minimum of two separately prepared samples were analyzed for each protein variant. Each sample was scanned twice and standards were run before, between, and after each sample scan. Drift was monitored during washes between scans of both sample and standard injections.
To confirm that the chromophore arises from protein abstraction of the metal from the charged IMAC matrix, samples were subjected to ICP-MS for semi-quantitative analysis. As extensive washing is used to remove background metals, the values obtained from this method inherently underestimate the amount of metal bound, but can be used to assess the relative affinity of different metals for the protein. Additionally, to identify an endogenous metal ligand that may have been bound to PRL-1 during expression in the cells, ICP-MS was used to look for the presence of a transition metal from the first two rows in the periodic table as well as other common biologically relevant metals. […] On average 500 μM Ni-purified protein samples were digested in nitric acid for 16 h at 70° C. were determined to contain approximately 180 μM Ni, yielding a Ni to protein stoichiometry of 1:2.7+/−0.7. Zn was also detected in the Ni-purified samples at approximately 60 μM. […] Because ICP-MS analysis is conducted in a flow of Ar and the most abundant isotope of Ar has the same mass as Ca, Ca binding cannot be determined from the primary mass signal. Nonetheless, because a much higher amount of Ca was present in the cell culture media compared to Zn and yet the ICP-MS signal corresponds largely to zinc, the protein is unlikely to bind calcium.

Data set [2] can be described thus: ICP-MS of metal bound to purified PRL-1 (Zn). It counts as binding. Here is the method: as §1
To confirm that the chromophore arises from protein abstraction of the metal from the charged IMAC matrix, samples were subjected to ICP-MS for semi-quantitative analysis. […] On average 500 μM Ni-purified protein samples were digested in nitric acid for 16 h at 70° C. were determined to contain approximately 180 μM Ni, yielding a Ni to protein stoichiometry of 1:2.7+/−0.7. Zn was also detected in the Ni-purified samples at approximately 60 μM. […] Because ICP-MS analysis is conducted in a flow of Ar and the most abundant isotope of Ar has the same mass as Ca, Ca binding cannot be determined from the primary mass signal. […]

Data set [3] is described as follows: Metal displacement from Ni-purified PRL-1 (EDTA exchange, guanidinium hydrochloride and heat). It counts as physicochemical. Here is the method:
UV-Vis absorption spectra were used to measure the concentration of the PRL-1 protein. The concentrations of purified PRL-1 analogs were measured at 280 nm and calculated using an extinction coefficient of 19420 M^−1 cm^−1. Because of possible metal-protein absorption interferences in the high 200 nm region, the validity of the UV-Vis quantification method was confirmed by the Bradford method. Spectra of PRL-1 analogs at concentrations of 10, 5, 2.5, and 1.25 mg/mL were collected on a Cary 100 UV-Vis spectrophotometer from 800 to 200 nm. […] The resulting spectra were resolved and peak positions were evaluated using GRAMS/AI 7.00 software. Three methods were aimed at metal displacement. In the first, PRL-1-WT (e.g., wild type) samples were reduced using 20 mM β-mercaptoethanol (BME), and imidazole was added to a concentration of 10 mM. For 0.5 mM protein samples, this corresponds to 400-fold solution excess of BME to compete with the two C-terminal cysteine thiols and a 200-fold solution excess of imidazole to compete with the single C-terminal histidine imidazole side chain. New baselines were taken and the spectra recalculated. In the second method, baselines were recalculated for buffer containing 100 μM EDTA, and the spectrum for the PRL-1-WT sample that was exchanged ten million fold in 100 μM EDTA was recorded. Finally, 10 mg/mL protein samples were denatured in 5.6 M guanidinium hydrochloride and heated to 90° C., new baselines were taken, and the spectra were collected at 0, 2, 4 and 6 hrs.
Ni binding in PRL-1 was not affected by reduction of the disulfide bond at PRL-1's active site. […] Subtraction of the reduced spectrum from the oxidized confirms that there was no significant difference in metal coordination between the reduced and oxidized WT samples. To examine whether a small contribution from a His is made, additional imidazole was added to the solution to increase the signal strength of a transient association. […] Additionally, no spectral change was observed when the Ni-purified sample was reduced in the presence of imidazole. […]

Data set [4] can be described thus: UV-Vis absorption spectroscopy of Ni coordination by PRL-1 variants. It counts as binding. Conditions: relative to wild-type, Ni-purified. The procedure: UV-Vis absorption spectra were used to measure the concentration of the PRL-1 protein. The concentrations of purified PRL-1 analogs were measured at 280 nm and calculated using an extinction coefficient of 19420 M^−1 cm^−1. Because of possible metal-protein absorption interferences in the high 200 nm region, the validity of the UV-Vis quantification method was confirmed by the Bradford method. Spectra of PRL-1 analogs at concentrations of 10, 5, 2.5, and 1.25 mg/mL were collected on a Cary 100 UV-Vis spectrophotometer from 800 to 200 nm. […] The resulting spectra were resolved and peak positions were evaluated using GRAMS/AI 7.00 software. Three methods were aimed at metal displacement. […] In the second method, baselines were recalculated for buffer containing 100 μM EDTA, and the spectrum for the PRL-1-WT sample that was exchanged ten million fold in 100 μM EDTA was recorded. […]
Accordingly, characterization of metal coordination by PRL-1 was determined with UV-Vis absorption spectroscopy. The metal coordination geometry employed by PRL-1 and its mutants was analyzed using UV-Vis absorption spectroscopy at 800-200 nm. Absorption spectra of PRL-1 produced peaks at 280 and 220 nm, which arise from aromatic and peptide bonds within the protein and correspond well with the concentration determined using the Bradford assay. […]

A short description of data set [5]: Solubility of PRL-1 on loss of metal. It counts as physicochemical. Conditions: metal-free protein.

B1: PRL-1: recombinant human PRL-1 (phosphatase of regenerating liver) wild type, C-terminal NCC motif (protein, UniProt Q93096 1-170, looked up)
Protein tyrosine phosphatase …: MARMNRPAPVEVTYKNMRFLITHNPTNATLNKFIEELKKYGVTTIVRVCEATYDTTLVEKEGIHVLDWPFDDGAPPSNQIVDDWLSLVKIKFREEPGCCIAVHCVAGLGRAPVLVALALIEGGMKYEDAVQFIRQKRRGAFNSKQLLYLEKYRPKMRLRFKDSNGHRNNC
For the molecule B1, in data set [1], the “Ni bound, ICP-MS” value is on record as “approximately 120 μM”. In addition, in data set [1] (Zn-IMAC purified), the “Ni level in Zn-IMAC purified protein, ICP-MS” value is recorded as “only background levels”. Moreover, in data set [1] (on average 500 μM Ni-purified protein, digested in nitric acid 16 h at 70° C., semi-quantitative), the “Ni content of Ni-purified protein samples, ICP-MS” value was “approximately 180 μM”. The “Zn detected in Ni-purified samples, ICP-MS” value in data set [2] (Ni-IMAC purified) was “approximately 60 μM”. Besides, the “Zn content after Zn-IMAC purification, ICP-MS” value in data set [2] (Zn-IMAC purified) came to 270 µM. Further, in data set [3] (5.6 M guanidinium hydrochloride at 90° C.), the “loss of peaks at 318, 421 and 526 nm (Ni release)” value is “only gradually disappeared over 6 hrs”. The “reversibility of Ni binding” value in data set [3] (pH 7.4) was “irreversible”. The “effect of EDTA exchange on the absorption spectrum” value in data set [3] (ten million-fold exchange into buffer containing 100 μM EDTA) is listed as “little effect on the spectrum”.

B2: PRL-1-C170S: PRL-1 mutant, cysteine 170 replaced by serine (protein, UniProt Q93096 1-170, looked up, variant C170S)
Protein tyrosine phosphatase …: MARMNRPAPVEVTYKNMRFLITHNPTNATLNKFIEELKKYGVTTIVRVCEATYDTTLVEKEGIHVLDWPFDDGAPPSNQIVDDWLSLVKIKFREEPGCCIAVHCVAGLGRAPVLVALALIEGGMKYEDAVQFIRQKRRGAFNSKQLLYLEKYRPKMRLRFKDSNGHRNNS
With B2, in data set [1], the “Ni bound, ICP-MS” value was “No Ni was detected”.

B3: PRL-1-H166A: PRL-1 mutant, histidine 166 of the NGH motif replaced by alanine (protein, UniProt Q93096 1-170, looked up, variant H166A)
Protein tyrosine phosphatase …: MARMNRPAPVEVTYKNMRFLITHNPTNATLNKFIEELKKYGVTTIVRVCEATYDTTLVEKEGIHVLDWPFDDGAPPSNQIVDDWLSLVKIKFREEPGCCIAVHCVAGLGRAPVLVALALIEGGMKYEDAVQFIRQKRRGAFNSKQLLYLEKYRPKMRLRFKDSNGARNNC
In the case of B3, the “Ni bound, ICP-MS” value in data set [1] was approximately 60 µM. Further, in data set [4], the “decrease in signal measured by absorption spectroscopy” value came to 20%.

B4: Apo PRL-1: PRL-1 without bound metal (protein, UniProt Q93096 1-170, looked up)
Protein tyrosine phosphatase …: MARMNRPAPVEVTYKNMRFLITHNPTNATLNKFIEELKKYGVTTIVRVCEATYDTTLVEKEGIHVLDWPFDDGAPPSNQIVDDWLSLVKIKFREEPGCCIAVHCVAGLGRAPVLVALALIEGGMKYEDAVQFIRQKRRGAFNSKQLLYLEKYRPKMRLRFKDSNGHRNNC
modifications: metal-free
B4: in data set [5], the solubility result is given as “poorly soluble”.
